From PMC6746701, “A phyB-PIF1-SPA1 kinase regulatory complex promotes photomorphogenesis in Arabidopsis” (Nature Communications, 2019)

Target: T1, phyB-GFP ΔC purified from yeast (Saccharomyces cerevisiae) (Arabidopsis, UniProt P14713 1-1092, phycocyanobilin (PCB) chromophore assembled)
T1 construct: phytochrome B (phyB), Arabidopsis, residues 1-1092 (lacks the last 80 amino acids); The methods describe the yeast purification only for the full-length protein; also called phyB ΔC-GFP; source: Saccharomyces cerevisiae, purified; not shown: GFP, C-terminal, kept
T1 sequence (looked up): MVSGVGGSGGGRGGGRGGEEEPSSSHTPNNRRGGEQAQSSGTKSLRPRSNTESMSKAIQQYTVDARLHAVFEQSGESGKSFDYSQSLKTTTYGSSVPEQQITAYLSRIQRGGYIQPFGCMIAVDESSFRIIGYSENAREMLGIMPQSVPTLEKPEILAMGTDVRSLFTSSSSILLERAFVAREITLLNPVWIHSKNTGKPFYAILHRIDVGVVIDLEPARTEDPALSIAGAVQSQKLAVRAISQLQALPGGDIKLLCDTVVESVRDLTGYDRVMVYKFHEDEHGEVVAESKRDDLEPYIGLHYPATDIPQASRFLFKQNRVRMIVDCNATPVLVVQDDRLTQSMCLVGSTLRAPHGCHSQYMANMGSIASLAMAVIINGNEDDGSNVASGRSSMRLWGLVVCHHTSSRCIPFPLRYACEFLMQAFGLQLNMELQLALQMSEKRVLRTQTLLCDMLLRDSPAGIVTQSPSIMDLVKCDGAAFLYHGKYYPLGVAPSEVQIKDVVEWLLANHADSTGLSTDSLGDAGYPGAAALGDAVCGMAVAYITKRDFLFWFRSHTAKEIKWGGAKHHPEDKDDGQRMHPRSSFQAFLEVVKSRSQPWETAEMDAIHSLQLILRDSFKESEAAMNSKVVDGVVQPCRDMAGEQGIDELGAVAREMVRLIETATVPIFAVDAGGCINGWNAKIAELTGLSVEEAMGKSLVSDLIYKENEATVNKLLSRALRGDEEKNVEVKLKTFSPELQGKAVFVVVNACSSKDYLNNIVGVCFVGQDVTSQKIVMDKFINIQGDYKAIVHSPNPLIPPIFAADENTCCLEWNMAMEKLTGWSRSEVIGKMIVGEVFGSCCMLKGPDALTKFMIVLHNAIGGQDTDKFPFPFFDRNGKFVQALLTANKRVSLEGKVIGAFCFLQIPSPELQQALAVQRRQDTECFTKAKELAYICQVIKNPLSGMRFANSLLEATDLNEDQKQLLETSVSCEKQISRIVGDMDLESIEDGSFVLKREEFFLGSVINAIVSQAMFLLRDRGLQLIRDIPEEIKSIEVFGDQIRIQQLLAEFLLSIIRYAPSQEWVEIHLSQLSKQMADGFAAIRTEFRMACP
Assay: pull-down; in vitro: phytochromes purified from yeast (S. cerevisiae) and GST-PIF1; light-dependent
Conditions: both partners purified

B1: GST-PIF1-strep (natural protein, Arabidopsis, UniProt Q8GZM7 1-478, looked up)
chain: MHHFVPDFDTDDDYVNNHNSSLNHLPRKSITTMGEDDDLMELLWQNGQVVVQNQRLHTKKPSSSPPKLLPSMDPQQQPSSDQNLFIQEDEMTSWLHYPLRDDDFCSDLLFSAAPTATATATVSQVTAARPPVSSTNESRPPVRNFMNFSRLRGDFNNGRGGESGPLLSKAVVRESTQVSPSATPSAAASESGLTRRTDGTDSSAVAGGGAYNRKGKAVAMTAPAIEITGTSSSVVSKSEIEPEKTNVDDRKRKEREATTTDETESRSEETKQARVSTTSTKRSRAAEVHNLSERKRRDRINERMKALQELIPRCNKSDKASMLDEAIEYMKSLQLQIQMMSMGCGMMPMMYPGMQQYMPHMAMGMGMNQPIPPPSFMPFPNMLAAQRPLPTQTHMAGSGPQYPVHASDPSRVFVPNQQYDPTSGQPQYPAGYTDPYQQFRGLHPTQPPQFQNQATSYPSSSRVSSSKESEDHGNHTTG
notes: source: E. coli BL21(DE3), purified (Strep-Tactin Sepharose); not shown: GST, N-terminal, kept; Strep tag, C-terminal, kept
- binding result: binds
